The supplement of paper PMC10126150
± gives the standard deviation of the averaged measurements.

System: ATP
Experiment: switch fluorescence ratio, 500 uM ATP over buffer (Cy3 cluster intensity, sum of 5 cycles each) (fold (ratio)); higher = stronger signal-on switching upon ATP binding; sequences stand for … in TCGTCGGCAGCGTCAGATGTGTATAAGAGACAGTTTTTTTTTTTTTTTTTTTTTTTTT…TC
Conditions: aptamer strand: ATP DNA aptamer (quencher-CACCTGGGGGAGTATTGCGGAGGAAGG + anchor), 100 nM annealed; ATP concentration: 500 uM
Outline: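 Five buffer/ATP imaging cycles were run on Cy3-labelled switching-strand clusters on a modified Illumina MiSeq flow-cell, with NaOH stripping and re-annealing between cycles. In each cycle, clusters annealed to 100 nM quencher-labelled ATP aptamer were imaged in selection buffer, then after 15 min with 500 uM ATP at 22 °C. Per cluster, the fluorescence ratio is summed target-cycle over summed buffer-cycle Cy3 intensity, averaged per switch-domain sequence. Only clusters within 100-1000 RFU were kept.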
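Further: ATP exposure 15 min at 22 °C before imaging.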

| Sequence | switch fluorescence ratio |
| --- | --- |
| TTTGGCTGTA | 0.97 ± 0.012 |
| TTTGGGAAGT | 1 ± 0.025 |
| TTTGGGACTC | 0.9731 ± 0.0023 |
| TTTGGGCAGC | 1.083 ± 0.0087 |
| TTTGGGCCAT | 1.04 ± 0.12 |
| TTTGGGCTAT | 1.021 ± 0.0064 |
| TTTGGGGACT | 0.984 ± 0.011 |
| TTTGGGGCTT | 1 ± 0.04 |
| TTTGGGGGGC | 1.05 ± 0.12 |
| TTTGGGGTCT | 1.01 ± 0.1 |
| TTTGGGGTGG | 0.974 ± 0.031 |
| TTTGGGTCGG | 0.993 ± 0.018 |
| TTTGGGTGGT | 1.09 ± 0.21 |
| TTTGGGTTGC | 0.982 ± 0.014 |
| TTTGGTAATG | 1.01 ± 0.021 |
| TTTGGTAGAG | 0.98 ± 0.018 |
| TTTGGTCCCT | 0.993 ± 0.016 |
| TTTGGTGAGG | 1.01 ± 0.02 |
| TTTGGTGCCG | 1.17 ± 0.23 |
| TTTGGTGGCT | 1.01 ± 0.015 |
| TTTGGTGTAG | 1.02 ± 0.015 |
| TTTGGTTCGA | 0.977 ± 0.012 |
| TTTGGTTGTT | 0.988 ± 0.019 |
| TTTGGTTTAC | 1.01 ± 0.019 |
| TTTGGTTTT | 0.988 ± 0.027 |

| Sequence | switch fluorescence ratio |
| --- | --- |
| TTTGTAAAAA | 0.9829 ± 0.0094 |
| TTTGTAAAAG | 0.977 ± 0.033 |
| TTTGTAAGGG | 0.986 ± 0.021 |
| TTTGTAAGTG | 0.988 ± 0.018 |
| TTTGTACATT | 1.01 ± 0.011 |
| TTTGTACTCG | 1.01 ± 0.011 |
| TTTGTAGGCC | 0.989 ± 0.03 |
| TTTGTAGTCA | 1.05 ± 0.083 |
| TTTGTATACA | 1.01 ± 0.015 |
| TTTGTCGTTT | 1.03 ± 0.055 |
| TTTGTCTGTT | 1.03 ± 0.038 |
| TTTGTCTTC | 0.95 ± 0.015 |
| TTTGTGAGCA | 1.06 ± 0.08 |
| TTTGTGATTG | 0.985 ± 0.094 |
| TTTGTGGACT | 1.01 ± 0.031 |
| TTTGTGGGAG | 0.998 ± 0.02 |
| TTTGTGGGTG | 1.01 ± 0.019 |
| TTTGTGGTAT | 1.03 ± 0.047 |
| TTTGTGGTCG | 1.02 ± 0.031 |
| TTTGTGGTTA | 1.04 ± 0.056 |
| TTTGTGGTTT | 0.985 ± 0.043 |
| TTTGTGTAGG | 1.02 ± 0.049 |
| TTTGTGTCGT | 0.982 ± 0.053 |
| TTTGTGTCTG | 0.998 ± 0.012 |
| TTTGTTACTA | 1 ± 0.1 |

| Sequence | switch fluorescence ratio |
| --- | --- |
| TTTGTTAGCG | 1.01 ± 0.053 |
| TTTGTTCAT | 0.998 ± 0.028 |
| TTTGTTCGTT | 1.01 ± 0.029 |
| TTTGTTGACC | 1.02 ± 0.013 |
| TTTGTTGCTT | 0.989 ± 0.012 |
| TTTGTTGGGT | 1 ± 0.022 |
| TTTGTTGTGG | 1.01 ± 0.048 |
| TTTGTTTAGA | 0.9917 ± 0.0069 |
| TTTGTTTGTT | 0.986 ± 0.02 |
| TTTTAAAAAT | 1.03 ± 0.056 |
| TTTTAAAGCA | 1.01 ± 0.03 |
| TTTTAAATGA | 1 ± 0.021 |
| TTTTAACATA | 1.02 ± 0.016 |
| TTTTAACTAC | 1.18 ± 0.15 |
| TTTTAATGAT | 0.983 ± 0.024 |
| TTTTAATTAA | 1.01 ± 0.044 |
| TTTTACACCT | 1.23 ± 0.2 |
| TTTTACAGCG | 1 ± 0.036 |
| TTTTACAGGT | 1.01 ± 0.028 |
| TTTTACATTC | 1.03 ± 0.056 |
| TTTTACCATT | 1.09 ± 0.061 |
| TTTTACCCAA | 1.04 ± 0.024 |
| TTTTACCTTG | 1.028 ± 0.01 |
| TTTTACGGTA | 1.12 ± 0.022 |
| TTTTACGTGC | 1.02 ± 0.05 |

| Sequence | switch fluorescence ratio |
| --- | --- |
| TTTTACGTTG | 0.995 ± 0.01 |
| TTTTACTGCA | 1.07 ± 0.073 |
| TTTTACTTGC | 1.0115 ± 0.00074 |
| TTTTAGACAA | 1.18 ± 0.17 |
| TTTTAGAGCT | 1.02 ± 0.018 |
| TTTTAGAGGG | 0.982 ± 0.034 |
| TTTTAGATAT | 0.98713 ± 0.00039 |
| TTTTAGATCG | 0.997 ± 0.016 |
| TTTTAGGCGT | 0.99 ± 0.013 |
| TTTTAGGGAT | 1.03 ± 0.021 |
| TTTTAGGGGG | 1 ± 0.038 |
| TTTTAGGGTT | 1.01 ± 0.027 |
| TTTTAGTAGG | 1.04 ± 0.091 |
| TTTTAGTCT | 1.01 ± 0.023 |
| TTTTAGTCTA | 0.9809 ± 0.0021 |
| TTTTAGTGGG | 1.01 ± 0.039 |
| TTTTAGTTAA | 1.01 ± 0.03 |
| TTTTATACG | 1.36 ± 0.51 |
| TTTTATAGGT | 0.998 ± 0.017 |
| TTTTATATCC | 0.963 ± 0.028 |
| TTTTATGAGC | 1.03 ± 0.045 |
| TTTTATGGAG | 0.998 ± 0.013 |
| TTTTATGGT | 1.013 ± 0.0067 |
| TTTTATTAGT | 0.989 ± 0.044 |
| TTTTATTCTG | 1.01 ± 0.038 |

| Sequence | switch fluorescence ratio |
| --- | --- |
| TTTTATTGAA | 1 ± 0.03 |
| TTTTATTGTA | 0.999 ± 0.032 |
| TTTTATTGTG | 1 ± 0.027 |
| TTTTATTTTA | 0.991 ± 0.039 |
| TTTTATTTTG | 1.01 ± 0.057 |
| TTTTCAACGG | 1.01 ± 0.0017 |
| TTTTCAAGGG | 0.967 ± 0.015 |
| TTTTCACTCG | 1.006 ± 0.0038 |
| TTTTCAGATG | 1.02 ± 0.015 |
| TTTTCATGGC | 1.06 ± 0.018 |
| TTTTCCTGCG | 1.65 ± 0.64 |
| TTTTCGATGT | 0.994 ± 0.042 |
| TTTTCGGGGC | 0.981 ± 0.035 |
| TTTTCGGGGG | 1 ± 0.04 |
| TTTTCGTAAT | 2.26 ± 1.9 |
| TTTTCGTAGC | 1.09 ± 0.14 |
| TTTTCGTAGG | 0.983 ± 0.011 |
| TTTTCGTC | 0.978 ± 0.03 |
| TTTTCGTGCT | 0.956 ± 0.05 |
| TTTTCGTTCG | 1.01 ± 0.059 |
| TTTTCTAGTA | 0.983 ± 0.038 |
| TTTTCTCCGA | 1.2 ± 0.26 |
| TTTTCTCCTC | 1.31 ± 0.35 |
| TTTTCTCTAG | 1.01 ± 0.055 |
| TTTTCTCTTA | 1.0182 ± 0.00039 |

| Sequence | switch fluorescence ratio |
| --- | --- |
| TTTTCTGGCT | 1.04 ± 0.035 |
| TTTTCTGGGG | 0.994 ± 0.032 |
| TTTTCTGTGG | 0.994 ± 0.035 |
| TTTTGAACAA | 1.02 ± 0.039 |
| TTTTGAAGCC | 1.03 ± 0.014 |
| TTTTGAAGCG | 0.99 ± 0.024 |
| TTTTGACTGC | 0.977 ± 0.05 |
| TTTTGAGGGT | 0.99 ± 0.023 |
| TTTTGAGGTA | 1.05 ± 0.023 |
| TTTTGAGTAC | 1.01 ± 0.042 |
| TTTTGAGTGG | 0.995 ± 0.025 |
| TTTTGAGTTT | 0.984 ± 0.028 |
| TTTTGATATC | 0.997 ± 0.012 |
| TTTTGATTAC | 1.01 ± 0.065 |
| TTTTGCAAGC | 1.14 ± 0.13 |
| TTTTGCATTC | 1.1 ± 0.053 |
| TTTTGCATTT | 1.04 ± 0.055 |
| TTTTGCCATA | 1.02 ± 0.042 |
| TTTTGCCCGA | 0.988 ± 0.029 |
| TTTTGCCGAG | 0.994 ± 0.011 |
| TTTTGCCTTC | 1.09 ± 0.027 |
| TTTTGCCTTG | 0.967 ± 0.043 |
| TTTTGCGGAT | 1.04 ± 0.015 |
| TTTTGCTCGG | 0.998 ± 0.025 |
| TTTTGCTTGG | 1.01 ± 0.015 |

| Sequence | switch fluorescence ratio |
| --- | --- |
| TTTTGGAAAT | 1.02 ± 0.027 |
| TTTTGGACGG | 1.01 ± 0.032 |
| TTTTGGAGC | 1.05 ± 0.068 |
| TTTTGGATTG | 0.986 ± 0.026 |
| TTTTGGCAGA | 0.982 ± 0.047 |
| TTTTGGCATG | 1.03 ± 0.034 |
| TTTTGGCGC | 1.002 ± 0.0012 |
| TTTTGGCTAT | 1.017 ± 0.0015 |
| TTTTGGGAAA | 0.989 ± 0.044 |
| TTTTGGGACG | 0.993 ± 0.082 |
| TTTTGGGATG | 0.978 ± 0.033 |
| TTTTGGGATT | 1.03 ± 0.06 |
| TTTTGGGGCT | 1.01 ± 0.03 |
| TTTTGGGGGC | 1.01 ± 0.023 |
| TTTTGGGTC | 0.999 ± 0.034 |
| TTTTGGGTCG | 1.03 ± 0.025 |
| TTTTGGGTGA | 1.01 ± 0.024 |
| TTTTGGTACT | 0.984 ± 0.027 |
| TTTTGGTAGC | 1.01 ± 0.017 |
| TTTTGGTCGA | 1.03 ± 0.022 |
| TTTTGGTGCT | 1.01 ± 0.03 |
| TTTTGGTGGT | 1.01 ± 0.024 |
| TTTTGGTGTG | 1.01 ± 0.026 |
| TTTTGTAAGC | 1.04 ± 0.083 |
| TTTTGTAAGT | 0.992 ± 0.029 |

| Sequence | switch fluorescence ratio |
| --- | --- |
| TTTTGTACAT | 0.99 ± 0.039 |
| TTTTGTACGT | 1.02 ± 0.041 |
| TTTTGTATAT | 1.01 ± 0.025 |
| TTTTGTCGTT | 1.03 ± 0.095 |
| TTTTGTGAGC | 0.996 ± 0.021 |
| TTTTGTGGAT | 1.05 ± 0.053 |
| TTTTGTGGTG | 1.001 ± 0.007 |
| TTTTGTGTCA | 0.969 ± 0.029 |
| TTTTGTGTGG | 1.01 ± 0.026 |
| TTTTGTTATT | 1.03 ± 0.068 |
| TTTTGTTGAT | 1.03 ± 0.052 |
| TTTTTAAAAC | 1.003 ± 0.0097 |
| TTTTTAAAG | 1.022 ± 0.0083 |
| TTTTTAACTA | 0.993 ± 0.012 |
| TTTTTAACTT | 0.995 ± 0.022 |
| TTTTTACAAT | 1.01 ± 0.039 |
| TTTTTACGCA | 1.154 ± 0.0098 |
| TTTTTACGTT | 1.03 ± 0.021 |
| TTTTTAGACT | 1 ± 0.038 |
| TTTTTAGATA | 0.973 ± 0.038 |
| TTTTTAGATC | 1.004 ± 0.0088 |
| TTTTTAGGAC | 0.997 ± 0.014 |
| TTTTTAGGG | 0.983 ± 0.034 |
| TTTTTAGTCT | 1 ± 0.027 |
| TTTTTATGTT | 0.99 ± 0.032 |
